US11634743B2, “Coupled, self-sufficient biotransformation of chenodeoxcholic acid to ursodeoxycholic acid and novel enzyme mutants applicable in said process” (Pharmazell GmbH, priority 2016, dated 2023)

B1: 7α-HSDH [D42A/I43R]: double mutant D42A/I43R of E. coli 7α-HSDH (SEQ ID NO: 37) (protein, listed as Escherichia coli)
chain: MFNSDNLRLDGKCAIITGAGAGIGKEIAITFATAGASVVVSARNADAANHVVDEIQQLGGQAFACRCDITSEQELSALADFAISKLGKVDILVNNAGGGGPKPFDMPMADFRRAYELNVFSFFHLSQLVAPEMEKNGGGVILTITSMAAENKNINMTSYASSKAAASHLVRNMAFDLGEKNIRVNGIAPGAILTDALKSVITPEIEQKMLQHTPIRRLGQPQDIANAALFLCSPAASWVSGQILTVSGGGVQELN
B2: 7α-HSDH [D42G]: single mutant D42G of E. coli 7α-HSDH (SEQ ID NO: 37) (protein, listed as Escherichia coli)
chain: MFNSDNLRLDGKCAIITGAGAGIGKEIAITFATAGASVVVSGINADAANHVVDEIQQLGGQAFACRCDITSEQELSALADFAISKLGKVDILVNNAGGGGPKPFDMPMADFRRAYELNVFSFFHLSQLVAPEMEKNGGGVILTITSMAAENKNINMTSYASSKAAASHLVRNMAFDLGEKNIRVNGIAPGAILTDALKSVITPEIEQKMLQHTPIRRLGQPQDIANAALFLCSPAASWVSGQILTVSGGGVQELN
B3: 7α-HSDH [I43R]: single mutant I43R of E. coli 7α-HSDH (SEQ ID NO: 37) (protein, listed as Escherichia coli)
chain: MFNSDNLRLDGKCAIITGAGAGIGKEIAITFATAGASVVVSDRNADAANHVVDEIQQLGGQAFACRCDITSEQELSALADFAISKLGKVDILVNNAGGGGPKPFDMPMADFRRAYELNVFSFFHLSQLVAPEMEKNGGGVILTITSMAAENKNINMTSYASSKAAASHLVRNMAFDLGEKNIRVNGIAPGAILTDALKSVITPEIEQKMLQHTPIRRLGQPQDIANAALFLCSPAASWVSGQILTVSGGGVQELN
B4: 7β-HSDH [G39E]: NAD(H)-dependent 7β-HSDH mutant G39E from C. aerofaciens, SEQ ID NO:48 (C-His-Tag) (protein)
chain: MNLREKYGEWGLILGATEGVGKAFCEKIAAGGMNVVMVERREEKLNVLAGEIRETYGVETKVVRADFSQPGAAETVFAATEGLDMGFMSYVACLHSFGKIQDTPWEKHEAMINVNVVTFLKCFHHYMRIFAAQDRGAVINVSSMTGISSSPWNGQYGAGKAFILKMTEAVACECEGTGVDVEVITLGTTLTPSLLSNLPGGPQGEAVMKIALTPEECVDEAFEKLGKELSVIAGQRNKDSVHDWKANHTEDEYIRYMGSFYRDLEHHHHHH
modifications: C-terminal His-tag; 7beta-HSDH Mutante [G39E] C. aerofaciens + C-terminal His-Tag
B5: 7β-HSDH [G39S/R64E]: NADP+-dependent 7β-HSDH double mutant G39S/R64E from C. aerofaciens, SEQ ID NO:45 (protein)
chain: MNLREKYGEWGLILGATEGVGKAFCEKIAAGGMNVVMVSRREEKLNVLAGEIRETYGVETKVVEADFSQPGAAETVFAATEGLDMGFMSYVACLHSFGKIQDTPWEKHEAMINVNVVTFLKCFHHYMRIFAAQDRGAVINVSSMTGISSSPWNGQYGAGKAFILKMTEAVACECEGTGVDVEVITLGTTLTPSLLSNLPGGPQGEAVMKIALTPEECVDEAFEKLGKELSVIAGQRNKDSVHDWKANHTEDEYIRYMGSFYRDLEHHHHHH
modifications: 7beta-HSDH Mutant [G39S/R64E] C. aerofaciens + C-terminal His-tag
B6: Cd7α-HSDH: NADP+-dependent 7α-hydroxysteroid dehydrogenase from Clostridium difficile (DSM 12056), SEQ ID NO: 34; with N-His-tag SEQ ID NO: 35 (protein)
chain: MEKLQGKIAVVTAATKGIGLASAEILAKNGATVYLAARSEELAHEVINKISAEGGCAKFVYFNAREEETFTSMIEEVVKKEGKIDILVNNFGSTNPSLDKDLVTGDTDNFFDTVNTNLKSVYLPCKAAIPHMIKNGKGSIVNISSIGSVLPDLSRIAYCVSKAAINSLTQNIATQYAKDNVRCNAVLPGLIATKAALDNMSPEFIKEFLKHVPLNRIGEPDDIAKAVLFYASDDSSFITGDLLEVAGGFGLPTPQFADNILG
modifications: Clostridium difficile
B7: 7α-HSDH [D42G/I43R]: NADP+-dependent double mutant D42G/I43R of E. coli 7α-HSDH, SEQ ID NO: 41 (N-His-Tag) (protein)
chain: MGSSHHHHHHSSGLVPRGSHMFNSDNLRLDGKCAIITGAGAGIGKEIAITFATAGASVVVSGRNADAANHVVDEIQQLGGQAFACRCDITSEQELSALADFAISKLGKVDILVNNAGGGGPKPFDMPMADFRRAYELNVFSFFHLSQLVAPEMEKNGGGVILTITSMAAENKNINMTSYASSKAAASHLVRNMAFDLGEKNIRVNGIAPGAILTDALKSVITPEIEQKMLQHTPIRRLGQPQDIANAALFLCSPAASWVSGQILTVSGGGVQELN
modifications: N-terminal His-tag; 7alpha HSDH E. coli mutant D42G/I43R + N-terminal His-Tag
B8: 7α-HSDH [wildtype]: NAD+-dependent 7α-HSDH of E. coli, wildtype, SEQ ID NO: 38 (N-His-Tag) (protein)
chain: MGSSHHHHHHSSGLVPRGSHMFNSDNLRLDGKCAIITGAGAGIGKEIAITFATAGASVVVSDINADAANHVVDEIQQLGGQAFACRCDITSEQELSALADFAISKLGKVDILVNNAGGGGPKPFDMPMADFRRAYELNVFSFFHLSQLVAPEMEKNGGGVILTITSMAAENKNINMTSYASSKAAASHLVRNMAFDLGEKNIRVNGIAPGAILTDALKSVITPEIEQKMLQHTPIRRLGQPQDIANAALFLCSPAASWVSGQILTVSGGGVQELN
modifications: N-terminal His-tag; E. coli 7alpha HSDH WT + N-terminal His Tag

Legend:
[1] = Photometric activity assay of E. coli 7α-HSDH wildtype and mutants (crude extracts); type: biochemical; conditions: crude extract, substrate CDCA
Protocol: The reaction mixture contained in a total volume of 1 ml:
880 μl 50 mM potassium phosphate (KPi) buffer, pH 8.0
100 μl 100 mM CDCA (dissolved in 50 mM KPi, pH 8)
10 μl Enzyme solution (in buffer as above, in the range of 2 to 6 U/ml)
10 μl 50 mM NAD^+ or NADP^+ (dissolved in ddH2O)
An increase of extinction was determined at 340 nm over a period of 30 seconds and the activity was expressed as enzyme unit (1 U corresponds to a conversion of 1 μmol NAD(P)H/min). The molar extinction coefficient was 6.22 mM^−1×cm^−1.
The photometric activity assay of the crude extract was performed by means of a UV-1700 spectrophotometer (Shimadzu, Japan) (see method described above under item 1.7). In Table 8, the specific activity values of individual mutants as obtained for NAD^+ and NADP^+ are summarized.

[2] = Coupled one-step conversion of CDCA to UDCA with isolated enzymes, NAD(H) as cofactor; type: biochemical; conditions: 25 mM CDCA, 100 mM KPi pH 7.0, 25° C., 0.25 mM NAD^+
[3] = Coupled one-step conversion of CDCA to UDCA with isolated enzymes, NADP(H) as cofactor; type: biochemical; conditions: 10 mM CDCA, 100 mM KPi pH 6.0, 25° C., 0.5 mM NADP^+
Protocol: The enzymatic synthesis of UDCA with isolated enzymes was performed standardized in 100 mM KPi buffer (pH 7.0) at 25° C. The reaction mixtures were magnetically stirred at 500 to 700 rpm. The cofactor concentration was 0.25 mM NAD^+. For the biotransformation with NAD^+ as cofactor, the reaction was performed with […] enzyme, and for the biotransformation with NADP^+ as cofactor the reaction was performed with 0.5 U/ml 7α-HSDH and 1.0 U/ml 7β-HSDH. After pre-determined time intervals, samples were taken and analyzed by means of HPLC.
In a second experiment, the biotransformation was performed in a one-step process with NADP(H) as cofactor. The enzymatic conversion of 10 mM CDCA was performed in 100 mM KPi buffer pH 6.0 at 25° C. with the 7β-HSDH [G39S/R64E] (SEQ ID NO:45) and the Cd7α-HSDH from C. difficile (SEQ ID NO:35) in a one-step process. The cofactor concentration was 0.5 mM NADP^+. For the 7-KLCA reduction, a […] 7β-HSDH from C. aerofaciens was applied and for the CDCA oxidation step the 7α-HSDH from C. difficile was applied. As illustrated a one-step conversion of CDCA in a directly coupled oxidation and reduction reaction with a NADP^+-dependent 7β-HSDH is operable.

[4] = Small-scale biotransformation of CDCA to 7-KLCA with Cd7α-HSDH and NAD(P)H oxidase, HPLC; type: biochemical; conditions: 10 mM CDCA, NADP^+ regenerated by NAD(P)H oxidase, after 18.5 h
Protocol: FIG. 5: Biotransfomation of CDCA (10 mM) in aqueous system (KPi, pH 7.0), containing 5 U Cd7α-HSDH and 50 U NOX during 18.5 hours. After 3.5 h and 7 h additional 50 U NOX were added to the reaction. Concentration of CDCA (-∘-CDCA) and 7-KLCA (-⋅-7-KLCA) were determined by HPLC.
HPLC analysis was performed on a Purospher® STAR RP-18 column (Merck, Germany) on a HPLC LC-2010AHT-System (Shimadzu, Japan) at a flow rate of 1 ml/min. The mobile phase consisted of two eluents. Eluent A was distilled water (pH 2.6 adjusted with orthophosphoric acid 85%) and eluent B HPLC-grade acetonitrile. The starting condition for the gradient program was 65% eluent A and 35% eluent B. The system was monitored by UV detector at 200 nm. Totally, 20 μl samples with a bile acid concentration in the range of 1 mg/ml were analyzed. Authentic samples of CDCA, 7-KLCA and UDCA at the same concentration were used as references.
For the biotransformation in a small-scale 10 mM CDCA in KPi-buffer (100 mM, pH 7.0), 0.1 mM NADP^+, 0.5 U mL^−1 Cd7α-HSDH and 5 U mL^−1 NADPH-oxidase were incubated at 25° C. The biotransformation were done in glass vials with a stirring bar in it and a stirrer speed of 500 rpm for 18 hours. Samples were taken periodically and diluted with methanol-water (pH 2.6) (9:1 v/v) for H PLC-analysis. […]

[5] = CDCA as substrate

| Molecule | activity with NADP^+ [1] [U/mg] | activity with NAD^+ [1] [U/mg] | other results |
| --- | --- | --- | --- |
| B1 | 2.1 | 0 |  |
| B2 | 0.3 | 0.4 |  |
| B3 | 0.4 | 51.8 |  |
| B4 |  |  | one-step conversion of CDCA in directly coupled oxidation and reduction [2]: operable |
| B5 |  |  | one-step conversion of CDCA in directly coupled oxidation and reduction [3]: operable |
| B6 |  |  | conversion of CDCA to 7-KLCA [4]: > 99%; conversion of CDCA to 7-KLCA ([4]; listed as enzyme from C. difficile): < 99%; one-step conversion of CDCA in directly coupled oxidation and reduction [3]: operable; activity ([5]; 45° C.): 11 U mg^−1; activity (maximum) ([5]; 60° C.): 77 U mg^−1; temperature of maximum activity ([5]; investigated between 15 and 65° C.): 60 °C |
| B7 | 6.3 | 0.1 | activity with NADP^+ ([1]; listed as no. 4): about 6.3 U/mg; activity with NAD^+ ([1]; listed as no. 4): only marginal activity |
| B8 | 0 | 51.6 |  |
